Source: the RNAGym collection of RNA variant scans (doi:10.1093/molbev/msab373)

B1: Azoarcus group I ribozyme (parent)
chain: GUGCCUUGCGCCGGGAAACCACGCAAGGGAUGGUGUCAAAUUCGGCGAAACCUAAGCGCCCGCCCGGGCGUAUGGCAACGCCGAGCCAAGCUUCGGCGCCUGCGCCGAUGAAGGUGUAGAGACUAGACGGCACCCACCUAAGGCAAACGCUAUGGUGAAGGCAUAGUCCAGGGAGUGGCGAAAGUCACACAAACCGG

Variants of: B1
Test: reverse-splicing fitness (ratio to wild type); higher = more active; in vitro selection; Mg2+ level not given
How it was run: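 An in vitro group I ribozyme library with randomized positions was T7-transcribed and gel-purified. In triplicate, 10 pmol RNA in EPPS pH 7.5 was reacted with 50 pmoles of a 30-nt RNA substrate for 1 h at 37 °C across several added MgCl2 levels (1–48 mM), then stopped with EDTA. Products were reverse transcribed from a substrate-complementary primer, PCR-amplified and sequenced (HiSeq 4000). Fitness is a variant's read proportion after selection over that before, normalised to wild type.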

Variant | reverse-splicing fitness
C82A A111C A120G C150A C169G U176C | 0.0234
C82A A111C A120U A145U C150U C169G U176A | 0.00315
C82A A111C A120U A145U C150U C169G U176C | 0.00338
C82A A111C A120U A145U C150U C169G U176G | 0.00247
C82A A111C A120U A145G C150A C169G | 0.00577
C82A A111C A120U A145G C150A C169U | 0.00559
C82A A111C A120U A145G C150A C169A | 0.00708
C82A A111C A120U A145G C150A U176G | 0.00381
C82A A111C A120U A145G C150A U176C | 0.00799
C82A A111C A120U A145G C150A U176A | 0.00754
C82A A111C A120U A145G | 0.023
C82A A111C A120U A145U | 0.0205
C82A A111C A120U A145C | 0.0196
C82A A111C A120G A145U C150U | 0.0124
C82A A111C A120G A145U C150G | 0.00701
C82A A111C A120U A145G C169G U176C | 0.00437
C82A A111C A120U A145G C169G U176A | 0.00381
C82A A111C A120U A145G C169G U176G | 0.00244
C82A A111C A120U A145U C150U C169A U176A | 0.00334
C82A A111C A120U A145U C150U C169A U176G | 0.00295
C82A A111C A120U A145U C150U C169A U176C | 0.00305

Variant | reverse-splicing fitness
C82A A111C A120G A145U C150G C169G U176G | 0.00527
C82A A111C A120G A145U C150G C169G U176C | 0.00484
C82A A111C A120G A145U C150G C169G U176A | 0.00626
C82A A111C A120U A145U C150G U176G | 0.00259
C82A A111C A120U A145U C150G U176C | 0.00511
C82A A111C A120U A145U C150G U176A | 0.00392
C82A A111C A120G C150G U176G | 0.00292
C82A A111C A120G C150G U176A | 0.00868
C82A A111C A120G C150G U176C | 0.0155
C82A A111C A120U A145G C150G U176A | 0.00763
C82A A111C A120U A145G C150G U176G | 0.00449
C82A A111C A120U A145G C150G U176C | 0.00851
C82A A111C A120U A145C C150G C169G U176G | 0.00318
C82A A111C A120U A145C C150G C169G U176A | 0.00291
C82A A111C A120U A145C C150G C169G U176C | 0.00325
C82A A111C A120U A145U C169A U176A | 0.00312
C82A A111C A120U A145U C169A U176G | 0.00264
C82A A111C A120U A145U C169A U176C | 0.00315
C82A A111C A120U A145U C169A | 0.00297
C82A A111C A120U A145U C169G | 0.00439
C82A A111C A120U A145U C169U | 0.00402

Variant | reverse-splicing fitness
C82A A111C A120U A145C C150U C169U U176C | 0.00286
C82A A111C A120U A145C C150U C169U U176A | 0.00329
C82A A111C A120U A145C C150U C169U U176G | 0.00284
C82A A111C A120U A145G C150U | 0.0191
C82A A111C A120U A145G C150A | 0.00897
C82A A111C A120U A145G C150G | 0.00762
C82A A111C A120G C150U C169G U176G | 0.00594
C82A A111C A120G C150U C169G U176A | 0.0134
C82A A111C A120G C150U C169G U176C | 0.0169
C82A A111C A120U A145C U176G | 0.00266
C82A A111C A120U A145C U176A | 0.00599
C82A A111C A120U A145C U176C | 0.00818
C82A A111C A120U A145G C150U C169U U176A | 0.00523
C82A A111C A120U A145G C150U C169U U176C | 0.00469
C82A A111C A120U A145G C150U C169U U176G | 0.00315
C82A A111C A120U A145G C169A U176A | 0.00438
C82A A111C A120U A145G C169A U176G | 0.00219
C82A A111C A120U A145G C169A U176C | 0.00466
C82A A111C A120U A145G C150U C169A U176A | 0.00915
C82A A111C A120U A145G C150U C169A U176G | 0.00324
C82A A111C A120U A145G C150U C169A U176C | 0.00432

Variant | reverse-splicing fitness
C82A A111C A120G C169G U176A | 0.0165
C82A A111C A120G C169G U176C | 0.0214
C82A A111C A120G C169G U176G | 0.00494
C82A A111C A120U A145G C150G C169U U176G | 0.00484
C82A A111C A120U A145G C150G C169U U176A | 0.00855
C82A A111C A120U A145G C150G C169U U176C | 0.00842
C82A A111C A120U A145U C169G U176A | 0.00336
C82A A111C A120U A145U C169G U176G | 0.00259
C82A A111C A120U A145U C169G U176C | 0.00308
C82A A111C A120U A145C C169A U176C | 0.00295
C82A A111C A120U A145C C169A U176G | 0.00214
C82A A111C A120U A145C C169A U176A | 0.00272
C82A A111C A120G A145U C150A U176C | 0.02
C82A A111C A120G A145U C150A U176A | 0.0139
C82A A111C A120G A145U C150A U176G | 0.00589
C82A A111C A120U A145U C150G C169U | 0.00325
C82A A111C A120U A145U C150G C169G | 0.00401
C82A A111C A120U A145U C150G C169A | 0.00497
C82A A111C A120U A145G C169A | 0.00372
C82A A111C A120U A145G C169G | 0.00415
C82A A111C A120U A145G C169U | 0.00493
